Experimental findings from patent publication US20110059095A1 (Regeneron, published 2011) are described below.

Assay [1] has as its target T1, Peptide F (monkey PAR-2), N-terminal biotinylated (Monkey (Macaca mulatta), N-terminal biotin via G4S linker).
T1 construct: also called Peptide F N-Term
The experiment in a line: SPR, antibody captured. (SPR reads the build-up and loss of mass on a sensor chip optically.)

In assay [2] the target is T2, C-terminal biotinylated human PAR-2 peptide SEQ ID NO:878 (Lys-41 to Ala) (human, not fully specified; C-terminal biotin (K-B)).
T2 construct: alanine-scan mutant
T2 peptide: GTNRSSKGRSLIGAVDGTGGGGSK
As to the kind of experiment: alanine scan by biolayer interferometry (Octet Red): C-terminal biotin peptide on streptavidin tips, 200 nM antibody; T1/2 relative to wild-type peptide SEQ ID NO:871. As for the experimental part:
(§1) In order to more particularly identify the amino acids of PAR-2 with which the PAR-2 antibodies interact, an alanine scanning study was carried out using peptides comprising the activating PAR-2 protease cleavage site.
(§2) The ability of each peptide mutant to bind to PAR-2 antibodies was measured using biolayer interferometry (Octet Red; ForteBio). Each peptide (2.5 μg/ml) was captured on streptavidin coated biosensor tips (Octet SA sensor) for 10 seconds. To measure binding and dissociation between each peptide and PAR-2 antibody, the peptide-coated biosensors were contacted with 200 nM solutions of PAR-2 antibodies for 5 minutes (binding) followed by transfer to buffer with no antibody for 10 min (dissociation). […] The results are expressed as percent binding and percent T_{1/2} relative to WT peptide (Tables 24-28).
(In general: In BLI a coated tip is dipped into the sample, and binding shifts an interference pattern.)

For assay [3], the target named is T3, C-terminal biotinylated human PAR-2 peptide SEQ ID NO:877 (Gly-40 to Ala) (human, not fully specified; C-terminal biotin (K-B)).
T3 construct: alanine-scan mutant
T3 peptide: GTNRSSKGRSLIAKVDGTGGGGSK
The description is as above. The protocol: as §1, §2

Assay [4] deals with T4, C-terminal biotinylated human PAR-2 peptide SEQ ID NO:880 (Asp-43 to Ala) (human, not fully specified; C-terminal biotin (K-B)).
T4 construct: alanine-scan mutant
T4 peptide: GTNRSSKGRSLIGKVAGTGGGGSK
The description is as above. The protocol:
as §1, §2

The target of assay [5] is T5, Peptide B (human PAR-2), unbiotinylated (Human).
T5 construct: also called Peptide B No Biotin
T5 peptide: SLIGKVDGTSHVTG
The experiment in a line: SPR, antibody captured.

A further assay concerns the target rat PAR-2 (rat, UniProt Q63645 37-397). As to the kind of experiment: cell-based or functional assay.
For a further assay, the target named is full length human PAR-2 (human, UniProt P55085 26-397). The experiment in a line: cell-based or functional assay.
A further assay concerns the target monkey PAR-2 (monkey). The experiment in a line: cell-based or functional assay.
For assay [6], the target named is T5, Peptide B (human PAR-2), unbiotinylated. As to the kind of experiment: SPR, antibody captured.

full length human PAR-2, sequence (P55085 26-397 G138A limits assumed): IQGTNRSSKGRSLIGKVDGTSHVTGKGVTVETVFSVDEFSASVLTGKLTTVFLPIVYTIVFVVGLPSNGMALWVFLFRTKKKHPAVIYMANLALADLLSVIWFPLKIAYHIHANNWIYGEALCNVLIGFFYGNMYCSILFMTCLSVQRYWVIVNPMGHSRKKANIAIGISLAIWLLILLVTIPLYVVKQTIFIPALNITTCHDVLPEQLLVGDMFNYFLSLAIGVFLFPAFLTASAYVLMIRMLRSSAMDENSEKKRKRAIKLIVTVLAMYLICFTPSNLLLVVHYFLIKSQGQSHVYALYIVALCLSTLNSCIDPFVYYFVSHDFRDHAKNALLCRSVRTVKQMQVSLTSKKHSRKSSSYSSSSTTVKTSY
T1 sequence (peptide, as listed by the source): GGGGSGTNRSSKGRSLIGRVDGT
rat PAR-2, sequence (Q63645 37-397): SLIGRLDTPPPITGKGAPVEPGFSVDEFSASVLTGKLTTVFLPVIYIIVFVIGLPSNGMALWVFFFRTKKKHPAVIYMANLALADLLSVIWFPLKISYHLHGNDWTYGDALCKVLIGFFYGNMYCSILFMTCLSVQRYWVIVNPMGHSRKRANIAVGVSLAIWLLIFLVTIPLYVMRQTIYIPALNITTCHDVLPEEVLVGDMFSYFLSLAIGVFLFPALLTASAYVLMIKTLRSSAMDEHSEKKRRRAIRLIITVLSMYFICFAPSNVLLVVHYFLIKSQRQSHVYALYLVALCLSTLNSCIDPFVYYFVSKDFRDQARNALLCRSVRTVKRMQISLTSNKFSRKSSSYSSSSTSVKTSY

B1: H4H588N (antibody, human IgG4, V domains shown)
VH: EVQLLESGGGLVQPGGSLRLSCAASGFTFSSYAMTWVRQAPGKGLYWVSAISGGRGSAYYADSVKGRFTISRDNSKNTLYLQMNSLRAEDTAVYYCAKEGDSGYDLAYWGRGTLVTVSS
VL: DIQMTQSPSSLSASVGDRVTITCRARQGISNNLAWLQQKPGKAPKSLIYAASSLQSGIPSKFSGSGSGTYFTLTISSLQPEDFATYYCQQYKSSPLTFGGGTKVEIK
notes: also called H2M588N variable regions
As to B1, the Kd amounted to 7.1 nM in [1] and 84 nM in assay [5]. The T1/2 amounted to 24 min in assay [1] and 9 min in assay [5]. Also, the “percent of T1/2 relative to wild-type peptide (average of duplicate experiments)” value was found to be 84% in [2], 0.5% in [3] and 4.5% in assay [4].

B2: H4H581P (antibody, human IgG4, V domains shown)
VH: QVQLVESGGGVVQPGRSLRLSCVASGFTFSRYGIHWVRQAPGKGLEWVIVISYDGINKYYADSVKGRFTISRDNSKNTVYLQMNSLRAEDTAVYYCAKGDFWSGYFDYWGQGTLVTVSS
VL: DIVMTQTPLSSPVTLGQPASISCRSSQSLVHSDGNTYLSWLHQRPGQPPRLLIYKISNRFSGVPDRFSGSGAGTDFTLQISRVEAEDVGIYYCMQATQFPTFGGGTKVEIK
notes: also called mAb H4H581P; H1H581P variable regions
As to B2, in assay [2], the “percent of T1/2 relative to wild-type peptide (average of duplicate experiments)” value was found to be 56%. The “percent of T1/2 relative to wild-type peptide (average of duplicate experiments)” value in [3] came out at 24%. Moreover, in [4], the “percent of T1/2 relative to wild-type peptide (average of duplicate experiments)” value came to 20%. The “H4H581P IC50, NF-kB-luciferase, Human Pancreatic Trypsin” value (from here on “H4H581P IC50 … Human Pancreatic Trypsin”) in the assay with rat PAR-2 amounted to 700 nM. For the same molecule, in the assay with full length human PAR-2, the “H4H581P IC50, NF-kB-luciferase, Bovine Factor Xa” value came out at 2.5 nM; the “H4H581P IC50, NF-kB-luciferase, Human Factor Xa” value was 1.1 nM; the “H4H581P IC50, NF-kB-luciferase, Human Kallikrein 5” value turned out to be 0.9 nM; the “H4H581P IC50, NF-kB-luciferase, Human Kallikrein 14” value was 1.2 nM. Moreover, in the assay with full length human PAR-2, the “H4H581P IC50 … Human Pancreatic Trypsin” value was 1.9 nM and the “H4H581P IC50, NF-kB-luciferase, Tryptase” value turned out to be 3.5 nM. Moreover, in the assay with monkey PAR-2, the “H4H581P IC50, NF-kB-luciferase, Bovine Factor Xa” value worked out at 0.9 nM; the “H4H581P IC50, NF-kB-luciferase, Human Kallikrein 5” value is 11 nM; the “H4H581P IC50, NF-kB-luciferase, Human Kallikrein 14” value was 11.6 nM; the “H4H581P IC50 … Human Pancreatic Trypsin” value turned out to be 5.4 nM.

B3: H4H583P (antibody, human IgG4, V domains shown)
VH: QVQLVESGGGVVQPGMSLRLSCTASGFTFRRYGMHWVRQAPGKGLEWVAVIWYDGSNKYYADSVKGRFTITRDNSKNTLYLQMNSLRAEDTAIYFCASEITIGDWFDPRGQGTLVTVSS
VL: AIQMTQSPSSLSASVGDRVTITCRASQGIRNDLGWFQQKPGKVPKLLIYAASTLHSGVPSRFSGSGFGTDFTLTISSLQPEDFATYYCLQDFNYPLTFGGGTKVEIK
notes: also called H1H583P variable regions
As to B3, in assay [6], the binding result is listed as “no binding (tested: 15.6 to 250 nM peptide)”.

As a reminder, the Kd is a measure of binding affinity in units of concentration.
